Data: PMC6363758, “Zinc regulates ERp44-dependent protein quality control in the early secretory pathway” (Nature Communications, 2019)

How the values were obtained:
[1] = biological target: T1, Ero1α Cys104/Cys131Cys166Ala mutant (recombinant) (UniProt Q96HE7 24-468, Cys104/Cys131Cys166Ala | Cys104/Cys131Cys166Ala | Cys104/Cys131Cys166Ala); assay: ITC; 420 µM Ero1α injected into 30 µM ERp44 WT, no Zn2+; 20 mM BisTris-HCl pH 6.2, 150 mM NaCl, 283 K; conditions: both partners purified
T1 construct: Ero1α with Cys104, Cys131 and Cys166 replaced by Ala; used in all the in vitro experiments
T1 sequence (looked up): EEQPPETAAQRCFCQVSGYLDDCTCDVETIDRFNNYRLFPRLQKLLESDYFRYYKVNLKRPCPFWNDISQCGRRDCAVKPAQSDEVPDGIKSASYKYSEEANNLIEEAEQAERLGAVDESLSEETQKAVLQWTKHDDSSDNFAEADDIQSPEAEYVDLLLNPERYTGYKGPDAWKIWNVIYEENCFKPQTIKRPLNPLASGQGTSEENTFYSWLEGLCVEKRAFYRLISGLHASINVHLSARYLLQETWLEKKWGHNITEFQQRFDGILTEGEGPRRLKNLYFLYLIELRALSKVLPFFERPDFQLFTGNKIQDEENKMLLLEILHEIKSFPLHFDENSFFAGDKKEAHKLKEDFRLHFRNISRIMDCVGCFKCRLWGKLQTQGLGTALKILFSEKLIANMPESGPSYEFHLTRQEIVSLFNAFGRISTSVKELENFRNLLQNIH

[2] = biological target: T1, Ero1α Cys104/Cys131Cys166Ala mutant …; assay: ITC; 200 µM ERp44 injected into 15 µM Ero1α and 15 µM ZnCl2; 20 mM BisTris-HCl pH 6.2, 150 mM NaCl, 283 K; conditions: both partners purified

- Kd [1]: 1310 nM
- Kd [2]: 220 nM
B1: ERp44 WT (recombinant) (natural protein)
chain: EITSLDTENIDEILNNADVALVNFYADWCRFSQMLHPIFEEASDVIKEEFPNENQVVFARVDCDQHSDIAQRYRISKYPTLKLFRNGMMMKREYRGQRSVKALADYIRQQKSDPIQEIRDLAEITTLDRSKRNIIGYFEQKDSDNYRVFERVANILHDDCAFLSAFGDVSKPERYSGDNIIYKPPGHSAPDMVYLGAMTNFDVTYNWIQDKCVPLVREITFENGEELTEEGLPFLILFHMKEDTESLEIFQNEVARQLISEKGTINFLHADCDKFRHPLLHIQKTPADCPVIAIDSFRHMYVFGDFKDVLIPGKLKQFVFDLHSGKLHREFHHGPDPTDTAPGEQAQDVASSPPESSFQKLAPSEYRYTLLRDRDEL
notes: ERp44, chaperone of the PDI family; Probably the mature protein without its signal peptide (surmise)
